Measurements: patent US20030152952

test system: N.BstNBI nicking endonuclease; assay: cleavage_in_vitro; conditions: duplex 2; repeat 9a 21.3

| Sequence | activity (relative mass units) |
| --- | --- |
| CCTACGACTGGAACAATAAAACCTACGACTGGA / TCCAGTCGTAGGTGAGTCTGTTCCAGTCGTAGG [Duplex 2/9a T-1/B-2 5 mismatches] | 18.5 |

same assay, conditions: duplex 7; repeat 8a 23.4

| Sequence | activity (relative mass units) |
| --- | --- |
| CCTACGACTGGAACAGTAACACCTACGACTGGA / TCCAGTCGTAGGTGAGTCTGTTCCAGTCGTAGG [Duplex 7/8a T-1/B-7 3 mismatches] | 21.2 |

same assay, conditions: duplex 9f; 9k printed with same T strand gave 22.6

| Sequence | activity (relative mass units) |
| --- | --- |
| CCTACGACTGGAACAATAAAACCTACGACTGGA / TCGTAGGTGAGTCTGTTCCAGTCGTAGG [Duplex 9f/9k T-1f/B-2] | 15.9 |

same assay, conditions: duplex 9g; 9l printed with same strands gave 22.5

| Sequence | activity (relative mass units) |
| --- | --- |
| CCTACGACTGGAACAATAAAACCTACGACTGGA / CGTAGGTGAGTCTGTTCCAGTCGTAGG [Duplex 9g/9l T-1g/B-2] | 28.3 |

same assay, conditions: nicking coupled to Vent exo- extension, LC/MS of released fragment, Mg2+, trehalose, 60 C 1 h

| Sequence | activity (relative mass units) |
| --- | --- |
| CCTACGACTGGAACAGACTCACCTACGACTGGA (double strand) [Duplex 1 T-1/B-1 perfect] | 121 |

same assay, conditions: same conditions

| Sequence | activity (relative mass units) |
| --- | --- |
| CCTACGACTGGAACAATAAAACCTACGACTGGA / AGGTGAGTCTGTTCCAGTCGTAGG [Duplex 9j T-1j/B-2] | 21.4 |
| CCTACGACTGGAACAATAAAACCTACGACTGGA / AGTCGTAGGTGAGTCTGTTCCAGTCGTAGG [Duplex 9d T-1d/B-2] | 15.3 |
| CCTACGACTGGAACAATAAAACCTACGACTGGA / CAGTCGTAGGTGAGTCTGTTCCAGTCGTAGG [Duplex 9c T-1c/B-2] | 19.2 |
| CCTACGACTGGAACAATAAAACCTACGACTGGA / CCAGTCGTAGGTGAGTCTGTTCCAGTCGTAGG [Duplex 9b T-1b/B-2] | 17.8 |
| CCTACGACTGGAACAATAAAACCTACGACTGGA / GAGTCTGTTCCAGTCGTAGG [Duplex 9n T-1n/B-2] | 14.3 |
| CCTACGACTGGAACAATAAAACCTACGACTGGA / GTAGGTGAGTCTGTTCCAGTCGTAGG [Duplex 9h T-1h/B-2] | 22.7 |
| CCTACGACTGGAACAATAAAACCTACGACTGGA / GTCGTAGGTGAGTCTGTTCCAGTCGTAGG [Duplex 9e T-1e/B-2] | 14 |
| CCTACGACTGGAACAATAAAACCTACGACTGGA / TAGGTGAGTCTGTTCCAGTCGTAGG [Duplex 9i T-1i/B-2] | 23.9 |
| CCTACGACTGGAACAATAAAACCTACGACTGGA / TGAGTCTGTTCCAGTCGTAGG [Duplex 9m T-1m/B-2] | 13.5 |
| CCTACGACTGGAACAGAAACACCTACGACTGGA / TCCAGTCGTAGGTGAGTCTGTTCCAGTCGTAGG [Duplex 6 T-1/B-6 2 mismatches] | 45 |
| CCTACGACTGGAACAGACACACCTACGACTGGA / TCCAGTCGTAGGTGAGTCTGTTCCAGTCGTAGG [Duplex 4 T-1/B-4 1 mismatch] | 61.5 |
| CCTACGACTGGAACAGATTCACCTACGACTGGA / TCCAGTCGTAGGTGAGTCTGTTCCAGTCGTAGG [Duplex 3 T-1/B-3 1 mismatch] | 66.7 |
| CCTACGACTGGAACAGTAACACCTACGACTGGA / AGGTGAGTCTGTTCCAGTCGTAGG [Duplex 8j T-1j/B-7] | 18.3 |
| CCTACGACTGGAACAGTAACACCTACGACTGGA / AGTCGTAGGTGAGTCTGTTCCAGTCGTAGG [Duplex 8d T-1d/B-7] | 29.2 |
| CCTACGACTGGAACAGTAACACCTACGACTGGA / CAGTCGTAGGTGAGTCTGTTCCAGTCGTAGG [Duplex 8c T-1c/B-7] | 11.5 |
| CCTACGACTGGAACAGTAACACCTACGACTGGA / CCAGTCGTAGGTGAGTCTGTTCCAGTCGTAGG [Duplex 8b T-1b/B-7] | 28.3 |
| CCTACGACTGGAACAGTAACACCTACGACTGGA / CGTAGGTGAGTCTGTTCCAGTCGTAGG [Duplex 8g T-1g/B-7] | 20.8 |
| CCTACGACTGGAACAGTAACACCTACGACTGGA / GAGTCTGTTCCAGTCGTAGG [Duplex 8n T-1n/B-7] | 12.5 |
| CCTACGACTGGAACAGTAACACCTACGACTGGA / GGTGAGTCTGTTCCAGTCGTAGG [Duplex 8k T-1k/B-7] | 19.3 |
| CCTACGACTGGAACAGTAACACCTACGACTGGA / GTAGGTGAGTCTGTTCCAGTCGTAGG [Duplex 8h T-1h/B-7] | 12.3 |
| CCTACGACTGGAACAGTAACACCTACGACTGGA / GTCGTAGGTGAGTCTGTTCCAGTCGTAGG [Duplex 8e T-1e/B-7] | 14.6 |
| CCTACGACTGGAACAGTAACACCTACGACTGGA / GTGAGTCTGTTCCAGTCGTAGG [Duplex 8l T-1l/B-7] | 15.6 |
| CCTACGACTGGAACAGTAACACCTACGACTGGA / TAGGTGAGTCTGTTCCAGTCGTAGG [Duplex 8i T-1i/B-7] | 14.9 |
| CCTACGACTGGAACAGTAACACCTACGACTGGA / TCGTAGGTGAGTCTGTTCCAGTCGTAGG [Duplex 8f T-1f/B-7] | 17.8 |
| CCTACGACTGGAACAGTAACACCTACGACTGGA / TGAGTCTGTTCCAGTCGTAGG [Duplex 8m T-1m/B-7] | 18.3 |
| CCTACGACTGGAACAGTCTCACCTACGACTGGA / TCCAGTCGTAGGTGAGTCTGTTCCAGTCGTAGG [Duplex 5 T-1/B-5 1 mismatch] | 63 |
